# Measured values reported in the supplement of paper PMC10567573.
# B1: TRIM43 (parent)
# chain: NRFRVEISFHFEVTNHNIRLFEDV
# B2: AUP1 (parent)
# chain: EGLLRFSSWPFSIQDVVQPLTLQV
# Variants of: B1
# Experiment: protein stability index of a GFP-peptide fusion (GPS, HEK-293T) (PSI 1-6); higher = more stable
# Details: c terminus: a fixed tail appended
# 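Further: lentivirally expressed fusions sorted by FACS into six bins by GFP to DsRed ratio, PSI derived from sequencing read proportions per bin multiplied by bin number.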
row,Variant,protein stability index
1,QRFRVEISFHFEVTNHNIRLFEDV,3.07
2,TRFRVEISFHFEVTNHNIRLFEDV,1.62
3,DRFRVEISFHFEVTNHNIRLFEDV,3.89
4,NRFRVEISFHFEETNHNIRLFEDV,4.46
5,NRFRVEISFHFEVTEHNIRLFEDV,2.92
6,NRFRVEISFHFEVTTHNIRLFEDV,1.49
7,NRFRVEISFHFEVTYHNIRLFEDV,3.23
8,NRFRVEISFHFEVTCHNIRLFEDV,3.41
9,NRFRVEISFHFEVTGHNIRLFEDV,2.28
10,NRFRVEISFHFEVTVHNIRLFEDV,2.13
11,NRFRVEISFHFEVTSHNIRLFEDV,2.18
12,NRFRVEISKHFEVTNHNIRLFEDV,1.85
13,NRFRVEISTHFEVTNHNIRLFEDV,2.01
14,NRFRVEISGHFEVTNHNIRLFEDV,2
15,NRFRVEISSHFEVTNHNIRLFEDV,1.91
16,NRFRVEISAHFEVTNHNIRLFEDV,2.87
17,NRFRVEISRHFEVTNHNIRLFEDV,1.76
18,NRFRVEISFEFEVTNHNIRLFEDV,2.98
19,NRFRVEISFHFEVTNHNIRLFEGV,3.13
20,NRFRVEISFHFEVTNHNIRLFEIV,3.66
21,NRFRVEISFHFEVHNHNIRLFEDV,3.49
22,NRFRVEGSFHFEVTNHNIRLFEDV,2.43
23,NRFRVEFSFHFEVTNHNIRLFEDV,3.57

row,Variant,protein stability index
1,NRFRVEYSFHFEVTNHNIRLFEDV,3.41
2,NRFRDEISFHFEVTNHNIRLFEDV,2.08
3,NRFRTEISFHFEVTNHNIRLFEDV,3.37
4,NRFREEISFHFEVTNHNIRLFEDV,1.46
5,NRFRPEISFHFEVTNHNIRLFEDV,2.8
6,NRFRVLISFHFEVTNHNIRLFEDV,2.03
7,NRFRVDISFHFEVTNHNIRLFEDV,2.34
8,NRFRVKISFHFEVTNHNIRLFEDV,3.25
9,NRFRVAISFHFEVTNHNIRLFEDV,2.86
10,NRFRVGISFHFEVTNHNIRLFEDV,2.02
11,NRFEVEISFHFEVTNHNIRLFEDV,3.4
12,NRFKVEISFHFEVTNHNIRLFEDV,2.96
13,NRFRVEISFHFEVTNHNIRVFEDV,4.23
14,NRFRVEISFHFEVTNHNIRLCEDV,2.67
15,NRFRVEISFHFEVTNHNIRLLEDV,2.29
16,NRFRVEISFHFEVTNHNIRLPEDV,1.76
17,NRFRVEISFHFEVTNHNIRLEEDV,2.31
18,NRFRVEISFHPEVTNHNIRLFEDV,1.58
19,NRFRVEISFHSEVTNHNIRLFEDV,2.74
20,NIFRVEISFHFEVTNHNIRLFEDV,3.39
21,NWFRVEISFHFEVTNHNIRLFEDV,2.21
22,NVFRVEISFHFEVTNHNIRLFEDV,1.92
23,NRFRVEISFHFEVTNHNIRLFEDI,2.14

row,Variant,protein stability index
1,NRFRVEISFHFEVTNHNQRLFEDV,3.52
2,NRFRVEISFHFEVTNHNVRLFEDV,2.97
3,NRFRVEISFHFEVTNHNGRLFEDV,2.43
4,NRFRVEISFHFEVTNHNKRLFEDV,1.47
5,NRFRVEISFHFEVTNHNERLFEDV,2.9
6,NRFRVEISFHFEVTNHNCRLFEDV,4.6
7,NRFRVEISFHFLVTNHNIRLFEDV,2.91
8,NRFRVEISFHFAVTNHNIRLFEDV,2.58
9,NRFRVEISFHFEVTNHNIDLFEDV,3.62
10,NRFRVEISFHFEVTNHNIQLFEDV,2.14
11,NRFRVEISFHFEVTNHNIYLFEDV,3.54
12,NRFRVEISFHFEVTNHNIILFEDV,2.06
13,NRFRVEISFHFEVTNRNIRLFEDV,4.01
14,NRFRVEISFHFEVTNCNIRLFEDV,3.06
15,NRFRVEISFHFEVTNVNIRLFEDV,1.07
16,NRFRVEISFHFEVTNHIIRLFEDV,1.37
17,NRFRVEISFHFEVTNHRIRLFEDV,2.53
18,NRFRVEISFHFEVTNHDIRLFEDV,4.85
19,NRTRVEISFHFEVTNHNIRLFEDV,2.7
20,NRIRVEISFHFEVTNHNIRLFEDV,2.35
21,NRNRVEISFHFEVTNHNIRLFEDV,3.43
22,NRERVEISFHFEVTNHNIRLFEDV,1.53
23,NRMRVEISFHFEVTNHNIRLFEDV,2.92

# Variants of: B2
# Experiment: as above
# Details: c terminus: a fixed tail appended
row,Variant,protein stability index
1,EGLDRFSSWPFSIQDVVQPLTLQV,2.08
2,EGLIRFSSWPFSIQDVVQPLTLQV,3.16
3,EGLLRFSSWPFSIQDVVQPLCLQV,1.52
4,EGLLRFSSWPFSIQDVVQPLGLQV,5.2
5,EGLLRFSSWPFSIQDVVQPLDLQV,1.58
6,EGLLRFSSWPFSIQDVVQPLNLQV,1.74
7,EGLLRFSSWPFSIQDVVQPLSLQV,3.58
8,EGLLRFSSWPFSIQDVVQPLLLQV,4.97
9,EGLLRFSSWPFSIQDVVQPLELQV,2.9
10,EGLLRFSSWPFSIQDVVQPLPLQV,1.8
11,EGLLRFSSWPFSIQDVVQPLTPQV,1.52
12,EGLLRFSSWPFSIQDVVQPLTSQV,1.85
13,EGLLRFSSWPFSIQDVVQPLTEQV,2.15
14,EGLLRFSSWPFSIQDVVQPLTQQV,2.11
15,EGLLRFSSWPFSIQDVVQPLTCQV,1.85
16,EGLLRFSSWPFSIQDVVQPLTIQV,2.13
17,EGLLRYSSWPFSIQDVVQPLTLQV,1.33
18,EGLLRKSSWPFSIQDVVQPLTLQV,1.7
19,EGLLRWSSWPFSIQDVVQPLTLQV,2.94
20,EGLLRDSSWPFSIQDVVQPLTLQV,1.46
21,EGLLRSSSWPFSIQDVVQPLTLQV,1.24
22,EGLLRVSSWPFSIQDVVQPLTLQV,1.73
23,EGLLRQSSWPFSIQDVVQPLTLQV,1.65
24,EGLLRHSSWPFSIQDVVQPLTLQV,1.34

row,Variant,protein stability index
1,EGLLRNSSWPFSIQDVVQPLTLQV,1.4
2,EGLLRASSWPFSIQDVVQPLTLQV,1.15
3,EGLLRFISWPFSIQDVVQPLTLQV,3.04
4,EGLLRFRSWPFSIQDVVQPLTLQV,1.33
5,EGLLRFHSWPFSIQDVVQPLTLQV,2.13
6,EGLLRFPSWPFSIQDVVQPLTLQV,2.2
7,EGLLRFMSWPFSIQDVVQPLTLQV,2.94
8,EGPLRFSSWPFSIQDVVQPLTLQV,2.44
9,EGLLRFSSWPFSIRDVVQPLTLQV,2.64
10,EGLLRFSSWPFSITDVVQPLTLQV,1.79
11,EGLLRFSSWPFSIQDVVQPLTLQK,2.17
12,EGLLRFSSWPFSIQDVVQPLTLQQ,1.53
13,EGLLRFSSWPFSIQDVVQPLTLQY,3.1
14,EGLLRFSSWPFSIQDVVQPLTLQI,2.38
15,EGLLRFSSWPFSIQDVVQPLTLQN,1.59
16,EGLLRFSSWPFSIQDVVQPLTLQF,3.48
17,EGLLRFSSWPFSIQDVVQPLTLQS,1.79
18,EGLLRFSSWPFSIQDVVQPLTLQW,2.53
19,EGLLRFSSWPFSIQDVVQPLTLQL,2.77
20,EGLLRFSSWPFSIQDVVQPLTLQG,2.14
21,EGLLRFSSWPFSIQDVVQPLTLQM,5.7
22,EGLLRFSSWPFGIQDVVQPLTLQV,2.04
23,EGLLRFSSWPFHIQDVVQPLTLQV,2.25
24,MGLLRFSSWPFSIQDVVQPLTLQV,1.43

row,Variant,protein stability index
1,YGLLRFSSWPFSIQDVVQPLTLQV,2.78
2,SGLLRFSSWPFSIQDVVQPLTLQV,2.31
3,PGLLRFSSWPFSIQDVVQPLTLQV,1.82
4,EGLLRFSSWPMSIQDVVQPLTLQV,2.22
5,EGLLRFSSWPKSIQDVVQPLTLQV,1.78
6,EGLLRFSSWPPSIQDVVQPLTLQV,2.46
7,EGLLRFSSWPRSIQDVVQPLTLQV,1.7
8,EGLLRFSSWPTSIQDVVQPLTLQV,2.46
9,EGLLRFSEWPFSIQDVVQPLTLQV,2.23
10,EGLLRFSAWPFSIQDVVQPLTLQV,2.17
11,EGLLRFSFWPFSIQDVVQPLTLQV,3.08
12,EGLLRFSSWPFSIQQVVQPLTLQV,3.59
13,EGLLRFSSWPFSIQMVVQPLTLQV,2.12
14,EGLLRFSSWPFSIQIVVQPLTLQV,1.3
15,EGLLRFSSWPFSIQYVVQPLTLQV,2.41
16,EGLLRFSSWPFSIQKVVQPLTLQV,1.48
17,EGLLRFSSWPFSIQLVVQPLTLQV,2.63
18,EGLLRFSSWPFSIQEVVQPLTLQV,3.9
19,EGLLRFSSWPFSIQNVVQPLTLQV,2.13
20,EGLLRFSSWPFSIQDVVQPLTLPV,1.45
21,EGLLRFSSWPFSIQDVVQPLTLCV,1.61
22,EGLLRFSSWPFSIQDVVQPLTLLV,3.58
23,EGLLRFSSWPFSIQDSVQPLTLQV,4.02
24,EGLLRFSSWPFSIQDDVQPLTLQV,1.08

row,Variant,protein stability index
1,EGLLRFSSWPFSIQDCVQPLTLQV,3.11
2,EGLLRFSSWPFSIQDIVQPLTLQV,2.78
3,EGLLRFSSWPFSIQDTVQPLTLQV,3.01
4,EGLLRFSSWPFSIQDHVQPLTLQV,3.18
5,EGLLRFSSWPFSIQDEVQPLTLQV,1.09
6,EGLLRFSSWPFSIQDKVQPLTLQV,2.57
7,EGLLGFSSWPFSIQDVVQPLTLQV,3.46
8,EGLLKFSSWPFSIQDVVQPLTLQV,1.37
9,EGLLTFSSWPFSIQDVVQPLTLQV,3.1
10,EGLLMFSSWPFSIQDVVQPLTLQV,1.56
11,EGLLRFSSWPFSHQDVVQPLTLQV,1.94
12,EGLLRFSSWPFSFQDVVQPLTLQV,3.26
13,EGLLRFSSWPFSKQDVVQPLTLQV,2.53
14,EGLLRFSSWPFSCQDVVQPLTLQV,1.56
15,EGLLRFSSWPFSWQDVVQPLTLQV,1.29
16,EGLLRFSSWPFSRQDVVQPLTLQV,2.4
17,EGLLRFSSWPFSEQDVVQPLTLQV,1.22
18,EGLLRFSSWPFSIQDVKQPLTLQV,2.35
19,EGLLRFSSWPFSIQDVDQPLTLQV,1.37
20,EGLLRFSSWPFSIQDVFQPLTLQV,2.53
21,EGLLRFSSWPFSIQDVHQPLTLQV,3.15
22,EGLLRFSSWPFSIQDVVHPLTLQV,2.53
23,EGLLRFSSWPFSIQDVVYPLTLQV,4.33
24,EGLLRFSSWPFSIQDVVAPLTLQV,2.25

row,Variant,protein stability index
1,EGLLRFSSDPFSIQDVVQPLTLQV,1.58
2,EGLLRFSSPPFSIQDVVQPLTLQV,1.28
3,EGLLRFSSLPFSIQDVVQPLTLQV,2.97
4,EGLLRFSSNPFSIQDVVQPLTLQV,1.42
5,EGLLRFSSIPFSIQDVVQPLTLQV,2.27
6,EGLLRFSSEPFSIQDVVQPLTLQV,1.66
7,EGLLRFSSQPFSIQDVVQPLTLQV,2
8,EGLLRFSSTPFSIQDVVQPLTLQV,1.86
9,EGLLRFSSAPFSIQDVVQPLTLQV,3.6
10,ECLLRFSSWPFSIQDVVQPLTLQV,3.51
11,EELLRFSSWPFSIQDVVQPLTLQV,2.63
12,EGLLRFSSWPFSIQDVVQSLTLQV,4.01
13,EGLLRFSSWPFSIQDVVQWLTLQV,1.56
14,EGLLRFSSWPFSIQDVVQPPTLQV,1.63
15,EGLLRFSSWPFSIQDVVQPNTLQV,1.54
16,EGLLRFSSWPFSIQDVVQPITLQV,5.25
17,EGLLRFSSWPFSIQDVVQPKTLQV,1.19
18,EGLLRFSSWPFSIQDVVQPHTLQV,1.22
19,EGLLRFSSWPFSIQDVVQPATLQV,1.65
20,EGLLRFSSWIFSIQDVVQPLTLQV,1.55
21,EGLLRFSSWDFSIQDVVQPLTLQV,2.04
22,EGLLRFSSWGFSIQDVVQPLTLQV,1.88
23,EGLLRFSSWNFSIQDVVQPLTLQV,2.05
